“Also recorded” adds a separate entry of the source.
Legend:
[1] = molecular target: T1, native c-Met on live SNU-5 cells (Homo sapiens, UniProt P08581); test: Temperature sensitivity of antibody binding by flow cytometry; conditions: live SNU-5, 10 μg/mL mAb, 1 hr
T1 construct: native c-Met expressed on the cell surface of SNU-5 cells; host or cells: SNU-5
Description: To determine if temperature affects the binding affinity of anti-α-chain monoclonal antibody to native c-Met, mAb 2, 13, 11 and 18 were incubated with live SNU-5 cells at 4° C. or 37° C. Binding of monoclonal antibody to native c-Met expressed on the cell surface of live SNU-5 cells was detected using anti-mouse secondary antibody conjugated with Alexa Fluor®488 dye and analysed by flow cytometry. Antibody binding, which correlates with fluorescence intensity, was compared at the different temperatures. […] It is plausible that the reduction of antibody binding is due to the unavailability of antibody's epitope on native c-Met expressed on live SNU-5 cells. c-Met is a dynamic protein at normal physiological temperature and becomes rigid at low temperature, causing certain epitopes to be obscured.
10 μg/mL of anti-α-chain monoclonal antibody were incubated with live SNU-5 cells for 1 hr at 4° C. or 37° C. Cells were harvested and washed once in cold PBS. Antibody binding to live cells was determined by Alexa Fluor®488-conjugated anti-mouse secondary antibodies (Invitrogen #A11029). Cells were resuspended in 1% BSA/PBS and analysed by flow cytometry.

SNU-5 cells [2] = test: Immunofluorescence of antibody internalisation; format: cell-based, human; conditions: SNU-5, 10 μg/mL mAb
Description: In order to determine if mAb 2 and 13 were internalised into the cell upon antibody binding, SNU-5 cells were incubated with 10 μg/mL of anti-α-chain monoclonal antibody. Monoclonal antibody treated cells were fixed and permeablised. Bound and internalised antibody was detected by anti-mouse Alexa Fluor®488-conjugated secondary antibody. Antibody localisation was observed by confocal microscopy.
10 μg/mL of anti-α-chain monoclonal antibody were incubated with live SNU-5 cells for 1 hr at 4° C. or 37° C. Antibody-treated cells were washed once with PBS and deposited onto polylysine-coated slides (Thermo Scientific, #5991056) using the Thermo Shandon Cytospin 3 Cytofuge (Thermo Scientific) at 800 rpm for 5 mins and fixed immediately in 4% paraformaldehyde. Cells were then blocked and permeablised in PBS containing 0.4% Triton X-100 and 5% BSA. Bound anti-α-chain c-Met antibodies were detected using anti-mouse Alexa Fluor®488-conjugated secondary antibody. Phallodin was added together with the secondary antibodies. Cells were washed before staining with 4′,6′-diamidino-2-phenylindole (DAPI) and mounted with Hydromount (National Diagnostics, U.S.A.) containing 2.5% DABCO (1,4-Diazabicyclo-[2.2.2]octane) (Sigma-Aldrich) as an anti-bleaching agent Immunofluorescence was observed using Nikon Eclipse E600 microscope.

SNU-5 cells [3] = test: CellTiter-Glo luminescent cell viability assay; format: cell-based, human; conditions: SNU-5, 72 hrs; mAb 10 μg/mL, SU11274 5 μM
Description: In order to determine if these antibodies have any physiological effects on tumour cells, 10 μg/mL of mAb was added to SNU-5 cells. […] This indicates SU11274 mode of mechanism is by activation of caspase which in turn result in apoptosis of SNU-5 tumour cells.
CellTiter-Glo® luminescent cell viability assay and Caspase-Glo® 3/7 Assay (Promega, U.S.A.) were used to determine cell viability and caspase activation respectively. SNU-5 cells (1×10^5 cells) were seeded in each 96-well and treated for 72 hrs before analysis. Cell viability and caspase activation were performed according to manufacturer's protocol. Luminescence was read using the EnVision plate reader (PerkinElmer, U.S.A.).

SNU-5 cells [4] = test: Annexin V staining (cell death); format: cell-based, human
c-Met α-chain peptides [5] = molecular target: T2, c-Met α-chain peptides (Homo sapiens, UniProt P08581); test: Pepscan ELISA-based epitope mapping; format: binding; set-up: mAb 2 binding to peptide O27: dose or concentration left out as unconfirmed; conditions: absorbance at 450 nm
T2 construct: consecutive overlapping peptides that span the entire c-Met α-chain; purchased Mimotopes (Australia); host or cells: chemical synthesis
Description: (§1) Identifying the region of c-Met bound by the antibody is important in determining whether the antibody might be able to block c-Met from binding to its ligand, HGF. Using an ELISA-based assay (Pepscan), synthesised peptides were added to strepatvidin-coated plates and antibody binding to their respective epitopes was determined colorimetrically. The peptides were consecutive overlapping peptides that span the entire c-Met α-chain.
(§2) Peptides that were linked to biotin by an SGSG linker sequence at the N-terminus were synthesised by Mimotopes (Australia). Peptides for Pepscan: Peptides that span the entire α-chain of c-Met were synthesised. A total of fifty-five peptides with consecutive, overlapping sequences were synthesised. […]
(§3) Variations of peptides O28 and O29, where each amino acid residue was sequentially substituted for an alanine residue, were synthesised. […] Colour change was monitored by eye and the reaction was stopped by adding 100 mM sulphuric acid. Absorbance was read at 450 nm in a microplate reader (SPECTRAmax PLUS^384, Molecular Device, U.S.A.). […] Computer imaging of the epitopes were analysed by PyMol (DeLano Scientific LLC, U.S.A.) software.
(§4) Pepscan analysis was used to determine the region of c-Met α-chain bound by mAb 2. […] Binding of the antibody was detected by colorimetric assay and analysed by absorbance reading at […].

c-Met α-chain peptides [6] = test: Pepscan ELISA-based epitope mapping; format: binding, human; set-up: mAb 2 binding to peptide O27: dose or concentration left out as unconfirmed; conditions: absorbance at 450 nm
Description: as §1, §2, §3, §4

T1 sequence (P08581 25-1390): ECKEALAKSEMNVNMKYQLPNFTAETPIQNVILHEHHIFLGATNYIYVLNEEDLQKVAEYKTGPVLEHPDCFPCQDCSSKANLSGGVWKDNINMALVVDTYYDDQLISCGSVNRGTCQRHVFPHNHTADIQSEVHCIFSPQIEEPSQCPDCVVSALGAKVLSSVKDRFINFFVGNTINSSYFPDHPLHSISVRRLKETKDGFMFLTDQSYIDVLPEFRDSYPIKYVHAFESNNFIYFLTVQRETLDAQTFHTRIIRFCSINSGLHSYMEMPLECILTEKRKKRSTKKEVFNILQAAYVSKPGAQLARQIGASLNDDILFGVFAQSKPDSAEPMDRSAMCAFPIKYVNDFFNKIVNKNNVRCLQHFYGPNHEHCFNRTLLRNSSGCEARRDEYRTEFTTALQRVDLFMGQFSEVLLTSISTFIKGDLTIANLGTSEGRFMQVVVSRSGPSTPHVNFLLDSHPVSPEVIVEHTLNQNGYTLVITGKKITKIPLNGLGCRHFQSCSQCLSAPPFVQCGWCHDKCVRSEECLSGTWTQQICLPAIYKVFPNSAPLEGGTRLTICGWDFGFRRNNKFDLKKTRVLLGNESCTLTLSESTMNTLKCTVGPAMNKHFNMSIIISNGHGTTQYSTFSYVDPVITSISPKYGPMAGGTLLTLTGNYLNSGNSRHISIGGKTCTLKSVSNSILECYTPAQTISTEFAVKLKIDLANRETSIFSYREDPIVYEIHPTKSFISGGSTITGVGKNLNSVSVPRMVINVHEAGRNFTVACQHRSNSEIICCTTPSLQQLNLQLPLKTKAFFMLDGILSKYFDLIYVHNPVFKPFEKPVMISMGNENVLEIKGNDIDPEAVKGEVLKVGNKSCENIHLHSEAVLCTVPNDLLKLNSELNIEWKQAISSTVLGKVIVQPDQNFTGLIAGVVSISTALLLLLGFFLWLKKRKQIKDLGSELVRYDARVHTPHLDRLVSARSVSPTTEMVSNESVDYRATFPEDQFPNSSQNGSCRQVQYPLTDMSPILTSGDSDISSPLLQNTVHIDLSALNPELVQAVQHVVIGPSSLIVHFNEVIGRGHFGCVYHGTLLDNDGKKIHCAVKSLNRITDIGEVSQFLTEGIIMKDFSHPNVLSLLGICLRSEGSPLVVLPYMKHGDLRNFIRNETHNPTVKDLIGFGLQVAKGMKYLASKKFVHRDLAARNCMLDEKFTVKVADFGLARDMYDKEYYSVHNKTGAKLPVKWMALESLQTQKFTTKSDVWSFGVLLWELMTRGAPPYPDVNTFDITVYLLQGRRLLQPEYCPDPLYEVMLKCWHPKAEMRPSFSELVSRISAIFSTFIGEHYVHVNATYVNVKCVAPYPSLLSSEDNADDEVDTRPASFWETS

B1: mAb 2: murine bivalent anti-α-chain c-Met monoclonal antibody, IgG1, kappa; CDRs SEQ ID NO: 2-7; epitope IEE and CPDC (antibody, listed as Homo sapiens)
heavy: QVQLKESGGGLVQPGGSLTLSCATSGFTFTDHYMSWVRQPPGKALEWLAFIRNKAKGYTTEYNASVRGRFTISRDNSQNIVYLQMNTLRTEDSATYYCARDGVGIAYWGQTLVTVSAAKTTPPSVYPLAP
light: SIVMTQSPLSLPVSLGDQASISCRSSQSLENINGNTYKNWYFQKPGQSPQLLIYRVSNRVSGVLDRFSGSGSGTDFTLKITRVEAEDLGVYFCLQVTHVPWTFGGGTKLEIKRADAAPTKSIS
- change of antibody binding between 4° C. and 37° C. [1]: most drastic peak shift; also recorded: temperature sensitive
- internalisation into the cell (SNU-5 cells [2]): internalised upon binding to c-Met; also recorded: internalised into the tumour cell
- antibody localisation at 4° C. (SNU-5 cells [2]; 1 hr, 4° C.): localised on the cell membrane with diffused cytoplasmic staining
- antibody localisation at 37° C. (SNU-5 cells [2]; 1 hr, 37° C.): increase staining was observed in the cytoplasm
- cell viability (SNU-5 cells [3]): reduced cell viability
- cell death (annexin V staining) (SNU-5 cells [4]): do not cause cell death
- mAb 2 binding to peptide O27 (c-Met α-chain peptides [5]): does not bind
- mAb 2 binding to peptides O28 and O29 (c-Met α-chain peptides [6]): equal affinity; also recorded: no binding preference

— US9994644B2, “mAB 2 anti-Met antibody” (Agency for Science, Technology and Research, priority 2013, dated 2018)
